Measurements reported in US20140112929A1.

Molecular target: TNFR1 on human umbilical vein endothelial cells (HUVEC) (human) (UniProt P19438)
Chain of UniProt P19438 (P19438 30-455): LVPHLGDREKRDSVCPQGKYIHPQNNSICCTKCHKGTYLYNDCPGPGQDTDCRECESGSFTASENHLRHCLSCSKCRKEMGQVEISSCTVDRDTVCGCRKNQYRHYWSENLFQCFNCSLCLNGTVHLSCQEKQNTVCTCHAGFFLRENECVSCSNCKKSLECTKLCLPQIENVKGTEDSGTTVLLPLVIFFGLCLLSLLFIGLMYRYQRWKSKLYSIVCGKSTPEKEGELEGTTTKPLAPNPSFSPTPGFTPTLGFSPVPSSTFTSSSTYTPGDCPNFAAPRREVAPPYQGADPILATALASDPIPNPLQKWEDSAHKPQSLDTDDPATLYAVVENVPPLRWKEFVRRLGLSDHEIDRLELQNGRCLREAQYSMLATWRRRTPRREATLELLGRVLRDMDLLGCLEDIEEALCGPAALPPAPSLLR

Chain of DOM1h-131-206 (VH): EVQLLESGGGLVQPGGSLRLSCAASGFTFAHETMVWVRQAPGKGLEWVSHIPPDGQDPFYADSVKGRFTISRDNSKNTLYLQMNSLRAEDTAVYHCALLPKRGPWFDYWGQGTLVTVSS

- IC50 (read off the curve) [b]: 0.5 nM
Substance: DOM1h-131-206
